# Assay results as given in patent publication US20120321591A1 (COVX TECHNOLOGIES IRELAND, published 2012).
# Bridges are numbered along the chain shown (N, C = ends). Where no end group is shown, it is not given here. [ ]: non-standard residue; d: D form. 0P linker = not defined here; Nle = CCCC[C@H](N)C(=O)O
# B1: [VEGF-Peptide] SEQ ID NO:68 (peptide)
# peptide: Ac-VEPNCDIHVMWVWECFERLLK(Ac)-NH2
# modifications: disulfide 5-15
# B2: [VEGF-Peptide] SEQ ID NO:62 (peptide)
# peptide: Ac-VEPNCDIHVMWVWECFERLMK-NH2
# modifications: disulfide 5-15 (inferred)
# B3: [VEGF-Peptide] SEQ ID NO:38 (peptide)
# peptide: Ac-VEPNCDIHVMWVWVCFERLMK-NH2
# modifications: disulfide 5-15 (inferred)
# B4: [VEGF-Peptide] SEQ ID NO:48 (peptide)
# peptide: Ac-VEPNCDIHVMWVWECFERLVK-NH2
# modifications: disulfide 5-15 (inferred)
# B5: [VEGF-Peptide] SEQ ID NO:67 (peptide)
# peptide: Ac-VEPNCDIHVMWVWECFERLLK-NH2
# modifications: disulfide 5-15 (inferred)
# B6: [VEGF-Peptide] SEQ ID NO:49 (peptide)
# peptide: Ac-VEPNCDIHVMWVWECFERLMR-NH2
# modifications: disulfide 5-15 (inferred)
# B7: [VEGF-Peptide] SEQ ID NO:47 (peptide)
# peptide: Ac-VEPNCDIHVMWVWECFERLYG-NH2
# modifications: disulfide 5-15 (inferred)
# B8: [VEGF-Peptide] SEQ ID NO:58 (peptide)
# peptide: Ac-VEPNCDIHVMWVWECFERLYK-NH2
# modifications: disulfide 5-15 (inferred)
# B9: [VEGF-Peptide] SEQ ID NO:57 (peptide)
# peptide: Ac-VEPNCDIHVMWVWECFERLIK-NH2
# modifications: disulfide 5-15 (inferred)
# B10: [VEGF-Peptide] SEQ ID NO:64 (peptide)
# peptide: Ac-VEPNCDIHVMWVWECFERL-NH2
# modifications: disulfide 5-15 (inferred)
# B11: [VEGF-Peptide] SEQ ID NO:40 (peptide)
# peptide: Ac-VEPNCDIHVMWVWECFERLYGIF-NH2
# modifications: disulfide 5-15 (inferred)
# B12: [VEGF-Peptide] SEQ ID NO:53 (peptide)
# peptide: Ac-VEPNCDIHVMWVWECFERLFKEA-NH2
# modifications: disulfide 5-15 (inferred)
# B13: [VEGF-Peptide] SEQ ID NO:44 (peptide)
# peptide: Ac-VEPNCDIHVMWVWECFERLYGLY-NH2
# modifications: disulfide 5-15 (inferred)
# B14: [VEGF-Peptide] SEQ ID NO:65 (peptide)
# peptide: Ac-VEPNCDIHVMWVWECFERLMKEL-NH2
# modifications: disulfide 5-15 (inferred)
# B15: [VEGF-Peptide] SEQ ID NO:74 (peptide)
# peptide: Ac-VEPNCDIHVMWVWECFERLYGVQ-NH2
# modifications: disulfide 5-15 (inferred)
# B16: [VEGF-Peptide] SEQ ID NO:61 (peptide)
# peptide: Ac-VEPNCDIHVMWVWECFERLYGGG-NH2
# modifications: disulfide 5-15 (inferred)
# B17: [VEGF-Peptide] SEQ ID NO:56 (peptide)
# peptide: Ac-VEPNCDIHVMWVWECFERLYGGF-NH2
# modifications: disulfide 5-15 (inferred)
# B18: [VEGF-Peptide] SEQ ID NO:71 (peptide)
# peptide: Ac-VEPNCDIHVMWVWECFERLYGLS-NH2
# modifications: disulfide 5-15 (inferred)
# B19: [VEGF-Peptide] SEQ ID NO:45 (peptide)
# peptide: Ac-VEPNCDIHVMWVWECFERLSGGG-NH2
# modifications: disulfide 5-15 (inferred)
# B20: [VEGF-Peptide] SEQ ID NO:77 (peptide)
# peptide: Ac-VEPNCDIHVMWVWECFERLYGPF-NH2
# modifications: disulfide 5-15 (inferred)
# B21: [VEGF-Peptide] SEQ ID NO:42 (peptide)
# peptide: Ac-VEPNCDIHVMWVWECFERLYGWG-NH2
# modifications: disulfide 5-15 (inferred)
# B22: [VEGF-Peptide] SEQ ID NO:59 (peptide)
# peptide: Ac-VEPNCDIHVMWVWECFERLMGLT-NH2
# modifications: disulfide 5-15 (inferred)
# B23: [VEGF-Peptide] SEQ ID NO:50 (peptide)
# peptide: Ac-VEPNCDIHVMWVWECFERLYGIL-NH2
# modifications: disulfide 5-15 (inferred)
# B24: [VEGF-Peptide] SEQ ID NO:43 (peptide)
# peptide: Ac-VEPNCDIHVMWVWVCFERLYGGG-NH2
# modifications: disulfide 5-15 (inferred)
# B25: [VEGF-Peptide] SEQ ID NO:76 (peptide)
# peptide: Ac-VEPNCDIHVMWVWECFERLYGPL-NH2
# modifications: disulfide 5-15 (inferred)
# B26: [VEGF-Peptide] SEQ ID NO:75 (peptide)
# peptide: Ac-VEPNCDIHVMWVWECFERLYGLE-NH2
# modifications: disulfide 5-15 (inferred)
# B27: [VEGF-Peptide] SEQ ID NO:46 (peptide)
# peptide: Ac-VEPNCDIHVMWVWECFERLMRLT-NH2
# modifications: disulfide 5-15 (inferred)
# B28: [VEGF-Peptide] SEQ ID NO:70 (peptide)
# peptide: Ac-VEPNCDIHVMWVWECFERLYGEF-NH2
# modifications: disulfide 5-15 (inferred)
# B29: [VEGF-Peptide] SEQ ID NO:66 (peptide)
# peptide: Ac-VEPNCDIHVMWVWECFERLYGPW-NH2
# modifications: disulfide 5-15 (inferred)
# B30: [VEGF-Peptide] SEQ ID NO:63 (peptide)
# peptide: Ac-VEPNCDIHVMWVWECFERLMREL-NH2
# modifications: disulfide 5-15 (inferred)
# B31: [VEGF-Peptide] SEQ ID NO:41 (peptide)
# peptide: Ac-VEPNCDIHVMWVWECFERLY-NH2
# modifications: disulfide 5-15 (inferred)
# B32: [VEGF-Peptide] SEQ ID NO:60 (peptide)
# peptide: Ac-VEPNCDIHVMWVWECFERL[dL]K(Ac)-NH2
# modifications: disulfide 5-15
# B33: [VEGF-Peptide] SEQ ID NO:54 (peptide)
# peptide: Ac-VEPNCDIHVMWVWECFERL[Nle]K-NH2
# modifications: disulfide 5-15
# B34: [VEGF-Peptide] SEQ ID NO:52 (peptide)
# peptide: Ac-VEPNCDIHVMWVWECFERLYGG-NH2
# modifications: disulfide 5-15 (inferred)
# B35: [VEGF-Peptide] SEQ ID NO:72 (peptide)
# peptide: Ac-VEPNCDIHVMWVWECFERLYGL-NH2
# modifications: disulfide 5-15 (inferred)
# B36: Compound 4026, peptide plus linker (T) (peptide)
# peptide: QKYQPLDELDKTLYDQFMLQQG-NH2
# modifications: not fully specified (N-terminus)
# notes: also called 4026 T
# B37: Compound 4027, peptide plus linker (T) (peptide)
# peptide: QKYQPLDELDK(0P linker)TLYDQFMLQQG-NH2
# modifications: reading uncertain; also: N-terminal acyl cap, printed as QKY QPL DEL DK(0P)T LYD QFM LQQ G
# notes: also called 4027 T
# B38: Compound 4059, peptide plus linker (T) (peptide)
# peptide: QRYQPLDELDKTLYDQFMLQQG-NH2
# modifications: not fully specified (residue 11, N-terminus); printed as QRY QPL DEL DK(0P)T LYD QFM LQQ G; also: N-terminal acyl cap
# notes: also called 4059 T
# B39: Compound 4060, peptide plus linker (T) (peptide)
# peptide: QHYQPLDELDKTLYDQFMLQQG-NH2
# modifications: not fully specified (residue 11, N-terminus); printed as QHY QPL DEL DK(0P)T LYD QFM LQQ G; also: N-terminal acyl cap
# notes: also called 4060 T
# B40: Compound 4024, peptide plus linker (T) (peptide)
# peptide: QXYQPLDELDKTLYDQFMLQQG
# modifications: N-terminal acyl cap; C-terminal amino cap; Kac 2; 4P linker on K11
# notes: also called 4024 T
# B41: Compound 4033, peptide plus linker (T) (peptide)
# peptide: QK(Ac)YQPLDEK(0P linker)DETLYDQFMLQQG
# modifications: reading uncertain; also: N-terminal acyl cap, C-terminal amino cap, printed as Q(Kac)Y QPL DEK(0P) DET LYD QFM LQQ G
# notes: also called 4033 T
# B42: Compound 4044, peptide plus linker (T) (peptide)
# peptide: QXYQPLDELDKTLFDQFMLQQG
# modifications: N-terminal acyl cap; C-terminal amino cap; Kac 2; 0P linker on K11
# notes: also called 4044 T
# B43: Compound 4037, peptide plus linker (T) (peptide)
# peptide: QXYQPLDEIDKTLYDQFMLQQG
# modifications: N-terminal acyl cap; C-terminal amino cap; Kac 2; 0P linker on K11
# notes: also called 4037 T
# B44: Compound 4036, peptide plus linker (T) (peptide)
# peptide: QXYQPLDELDKTIYDQFMLQQG
# modifications: N-terminal acyl cap; C-terminal amino cap; Kac 2; 0P linker on K11
# notes: also called 4036 T
# Target: T1, recombinant human VEGF165 (human, UniProt P15692-4 27-191)
# T1 construct: also called rhVEGF165
# Assay: competition ELISA: VEGF165 binding to coated VEGFR2/Fc
# T1 sequence (P15692 other isoform, or with tags, fused parts or gaps limits assumed): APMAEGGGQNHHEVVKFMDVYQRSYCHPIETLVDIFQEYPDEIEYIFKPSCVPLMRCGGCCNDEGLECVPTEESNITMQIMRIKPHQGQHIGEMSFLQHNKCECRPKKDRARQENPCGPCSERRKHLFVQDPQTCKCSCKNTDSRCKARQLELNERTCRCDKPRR
row,Binder,IC50
1,B1,10 nM
2,B2,25 nM
3,B3,92.6 nM
4,B4,42.4 nM
5,B5,10.1 nM
6,B6,34.5 nM
7,B7,43.3 nM
8,B8,25.1 nM
9,B9,25.4 nM
10,B10,24 nM
11,B11,78.3 nM
12,B12,31.4 nM
13,B13,54.6 nM
14,B14,18 nM
15,B15,4 nM
16,B16,23.6 nM
17,B17,26.2 nM
18,B18,5.4 nM

row,Binder,IC50
1,B19,51 nM
2,B20,1.8 nM
3,B21,68.2 nM
4,B22,25 nM
5,B23,34.4 nM
6,B24,66 nM
7,B25,2.3 nM
8,B26,3 nM
9,B27,44.1 nM
10,B28,9.3 nM
11,B29,18.7 nM
12,B30,24 nM
13,B31,69.9 nM
14,B32,25 nM
15,B33,28.6 nM
16,B34,32.3 nM
17,B35,4.8 nM

# Target: T2, human angiopoietin-2 protein (human, UniProt O15123 19-496)
# T2 construct: also called Ang-2; Ang2
# T2 sequence (looked up): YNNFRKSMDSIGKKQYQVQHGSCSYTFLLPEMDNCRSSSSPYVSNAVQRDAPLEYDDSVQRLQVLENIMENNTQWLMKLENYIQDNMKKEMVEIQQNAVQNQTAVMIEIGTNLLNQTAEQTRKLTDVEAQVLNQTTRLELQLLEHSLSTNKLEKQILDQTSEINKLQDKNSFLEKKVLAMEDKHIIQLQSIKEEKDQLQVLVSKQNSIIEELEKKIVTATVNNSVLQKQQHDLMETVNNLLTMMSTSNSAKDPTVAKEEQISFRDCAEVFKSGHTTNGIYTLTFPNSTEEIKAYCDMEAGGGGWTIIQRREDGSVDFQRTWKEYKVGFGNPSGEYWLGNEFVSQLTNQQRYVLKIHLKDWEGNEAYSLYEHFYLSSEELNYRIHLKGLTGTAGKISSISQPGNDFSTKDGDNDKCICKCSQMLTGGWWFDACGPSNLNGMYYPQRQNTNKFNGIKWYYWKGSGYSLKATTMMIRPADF
# Assay: competitive ELISA: Tie-2-Fc binding to coated Ang-2; T
# Experimental: Plates were washed three times with washing buffer (0.1% Tween 20, PBS, pH 7.4) and blocked with Superblock (Scytek), […] at room temperature (“RT”) for 1 hour. […] Plates were washed 3 times with washing buffer. […] Following incubation, 50 ul of 1:5,000 dilution of goat anti-mouse IgG-HRP in Superblock was then added and incubated at RT for one hour. After washing 3 times, […] was added, and incubated for 3-5 minutes. Color development was monitored and stopped with 25 μl of 2 M H₂SO₄. OD450 nm with a correction wavelength of 540 nm was measured.
row,Binder,IC50
1,B36,32.3 nM
2,B37,29 nM
3,B38,177 nM
4,B39,214 nM
5,B40,207 nM
6,B41,370 nM
7,B42,36.9 nM
8,B43,1270 nM
9,B44,2410 nM
